Source: PMC6635623
Several values for one entry are separate records, joined by “and”; a condition that tells them apart may be missing. Equal values may be shown once.

Target: Hfq-FLAG (Yersinia pestis Hfq with C-terminal 3×FLAG tag) (Yersinia pestis)
Test: […]; 25 mM Tris-HCl (pH 8.0) […]

With “Hfq-FLAG (Yersinia pestis Hfq with C-terminal 3×FLAG tag) (natural protein)” the stoichiometry N was 3 and 6.
